Laboratory results: patent publication US20210206875A1, “ERBB-2 TARGETING AGENT AND A BISPECIFIC ANTIBODY WITH ANTIGEN-BINDING SITES THAT BIND AN EPITOPE ON AN EXTRACELLULAR PART OF ERB-2 AND ERBB-3, FOR TREATMENT OF AN INDIVIDUAL WITH AN ERBB-2, ERBB-2/ERBB-3 POSITIVE TUMOUR” (Merus N.V., priority 2017, published 2021)

Molecular target: Erbb-3-Fc (RND systems) (UniProt P21860)
Assay: SPR (Biacore T100), monovalent affinity; column head 'KD on Her3 (nM)'; PB4188 on CM5 chip, Her3-Fc in solution

Kd: 3.9 nM
Substance: PB4188 (MF3958 x MF3178) (bispecific antibody)
